According to patent publication US20260234660A1, “TREATMENT OF MUSCLE RELATED DISORDERS WITH ANTI-HUMAN CACNG1 ANTIBODIES” (Regeneron Pharmaceuticals, Inc., priority 2023, published 2026):

Key:
[1] = target: human CACNG1, cell surface-expressed (human) (UniProt Q06432)
[2] = target: human CACNG1, cell surface-expressed (human) (UniProt Q06432); remark: listed apart in the source
[3] = target: human CACNG1, cell surface-expressed (human) (UniProt Q06432); remark: listed apart in the source

human CACNG1, cell surface-expressed (human), sequence (Q06432 whole entry): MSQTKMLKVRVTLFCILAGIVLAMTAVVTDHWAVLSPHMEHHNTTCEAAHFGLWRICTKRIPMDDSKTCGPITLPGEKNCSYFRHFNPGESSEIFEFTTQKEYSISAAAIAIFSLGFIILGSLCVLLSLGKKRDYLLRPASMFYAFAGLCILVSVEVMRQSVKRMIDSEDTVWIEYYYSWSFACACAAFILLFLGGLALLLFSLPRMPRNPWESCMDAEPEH

B1: REGN14571-M3004 (antibody, from a related filing, V domains shown, part only)
VH: QVQLQESGPGLVKPSETLSLTCTVSGDSINNYYWTWLRQPPGKGLEWIGYIYYSGSANYNPSLKSRVTISVDTSKNQFSLKLNSVTAADTAVYYCARGAVKYFRHWGQGTLVTVSS
VL: EIVLTQSPGTLSLSPGERATLSCRASQTINHNNLAWYQQRPGQAPRLLIYGASNRATAIPDRFSGSGSGTDFTLTISRLEPEDFEVYSCQQYGSLPLTFGGGTKVEIKR
[1]
  EC50; androgen receptor luciferase reporter (RLU), hCACNG1.AR.Luc LNCaP cells, 24 hours: 7.83 nM
[2]
  EC50; androgen receptor luciferase reporter (RLU), hCACNG1.AR.Luc LNCaP cells, 72 hours: 5.44 nM
[3]
  EC50; androgen receptor luciferase reporter (RLU), hCACNG1.AR.Luc LNCaP cells, 48 hours: 6.95 nM
